Measurements published in patent US20230406935A1 (F STAR THERAPEUTICS, published 2023).

Biological target: Human PD-L1 expressed on cells (human, UniProt Q9NZQ7 19-290)
Assay: cell-based or functional assay

Human PD-L1 expressed on cells, sequence (Q9NZQ7 19-290 limits assumed): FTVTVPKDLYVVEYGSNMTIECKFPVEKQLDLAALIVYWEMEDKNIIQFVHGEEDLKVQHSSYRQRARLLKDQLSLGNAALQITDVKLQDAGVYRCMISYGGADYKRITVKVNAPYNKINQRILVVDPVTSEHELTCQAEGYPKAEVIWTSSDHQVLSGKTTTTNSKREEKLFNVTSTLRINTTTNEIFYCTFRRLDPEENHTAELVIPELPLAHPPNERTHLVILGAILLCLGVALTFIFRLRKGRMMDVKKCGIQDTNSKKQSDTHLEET

Binder	SEB assay (IFNγ release) EC50 [nM]
FS17-33-289AA/HelD1.3 mock mAb^2 (bispecific antibody, human IgG1, kappa, L234A L235A, also called F17-33-289AA/HelD1.3; F17-33-289AA/HELD1.3) heavy: QVQLQESGPGLVRPSQTLSLTCTVSGSTFSGYGVNWVRQPPGRGLEWIGMIWGDGNTDYNSALKSRVTMLVDTSKNQFSLRLSSVTAADTAVYYCARERDYRLDYWGQGSLVTVSSASTKGPSVFPLAPSSKSTSGGTAALGCLVKDYFPEPVTVSWNSGALTSGVHTFPAVLQSSGLYSLSSVVTVPSSSLGTQTYICNVNHKPSNTKVDKKVEPKSCDKTHTCPPCPAPEAAGGPSVFLFPPKPKDTLMISRTPEVTCVVVDVSHEDPEVKFNWYVDGVEVHNAKTKPREEQYNSTYRVVSVLTVLHQDWLNGKEYKCKVSNKALPAPIEKTISKAKGQPREPQVYTLPPSRDESGYWVSLTCLVKGFYPSDIVVEWESNGEPQYWAKTTPPVLDSDGSFFLYSKLTVSNWRWQLDDFSCSVMHEALHNHYTQKSLSLSPGK light: DIQMTQSPASLSASVGETVTITCRASGNIHNYLAWYQQKQGKSPQLLVYNAKTLADGVPSRFSGSGSGTQYSLKINSLQPEDFGSYYCQHFWSTPRTFGGGTKLEIKRTVAAPSVFIFPPSDEQLKSGTASVVCLLNNFYPREAKVQWKVDNALQSGNSQESVTEQDSKDSTYSLSSTLTLSKADYEKHKVYACEVTHQGLSSPVTKSFNRGEC	0.566
FS17-33-289/HelD1.3 mock mAb^2 (without LALA) (bispecific antibody, human IgG1, kappa) heavy: QVQLQESGPGLVRPSQTLSLTCTVSGSTFSGYGVNWVRQPPGRGLEWIGMIWGDGNTDYNSALKSRVTMLVDTSKNQFSLRLSSVTAADTAVYYCARERDYRLDYWGQGSLVTVSSASTKGPSVFPLAPSSKSTSGGTAALGCLVKDYFPEPVTVSWNSGALTSGVHTFPAVLQSSGLYSLSSVVTVPSSSLGTQTYICNVNHKPSNTKVDKKVEPKSCDKTHTCPPCPAPELLGGPSVFLFPPKPKDTLMISRTPEVTCVVVDVSHEDPEVKFNWYVDGVEVHNAKTKPREEQYNSTYRVVSVLTVLHQDWLNGKEYKCKVSNKALPAPIEKTISKAKGQPREPQVYTLPPSRDESGYWVSLTCLVKGFYPSDIVVEWESNGEPQYWAKTTPPVLDSDGSFFLYSKLTVSNWRWQLDDFSCSVMHEALHNHYTQKSLSLSPGK light: DIQMTQSPASLSASVGETVTITCRASGNIHNYLAWYQQKQGKSPQLLVYNAKTLADGVPSRFSGSGSGTQYSLKINSLQPEDFGSYYCQHFWSTPRTFGGGTKLEIKRTVAAPSVFIFPPSDEQLKSGTASVVCLLNNFYPREAKVQWKVDNALQSGNSQESVTEQDSKDSTYSLSSTLTLSKADYEKHKVYACEVTHQGLSSPVTKSFNRGEC	0.969
FS17-33-296/HelD1.3 mock mAb^2 (without LALA) (bispecific antibody, human IgG1, kappa) heavy: QVQLQESGPGLVRPSQTLSLTCTVSGSTFSGYGVNWVRQPPGRGLEWIGMIWGDGNTDYNSALKSRVTMLVDTSKNQFSLRLSSVTAADTAVYYCARERDYRLDYWGQGSLVTVSSASTKGPSVFPLAPSSKSTSGGTAALGCLVKDYFPEPVTVSWNSGALTSGVHTFPAVLQSSGLYSLSSVVTVPSSSLGTQTYICNVNHKPSNTKVDKKVEPKSCDKTHTCPPCPAPELLGGPSVFLFPPKPKDTLMISRTPEVTCVVVDVSHEDPEVKFNWYVDGVEVHNAKTKPREEQYNSTYRVVSVLTVLHQDWLNGKEYKCKVSNKALPAPIEKTISKAKGQPREPQVYTLPPSRDESGYWVSLTCLVKGFYPSDIVVEWESNGEPQYWAKTTPPVLDSDGSFFLYSKLTVSNWRWQVDDFSCSVMHEALHNHYTQKSLSLSPGK light: DIQMTQSPASLSASVGETVTITCRASGNIHNYLAWYQQKQGKSPQLLVYNAKTLADGVPSRFSGSGSGTQYSLKINSLQPEDFGSYYCQHFWSTPRTFGGGTKLEIKRTVAAPSVFIFPPSDEQLKSGTASVVCLLNNFYPREAKVQWKVDNALQSGNSQESVTEQDSKDSTYSLSSTLTLSKADYEKHKVYACEVTHQGLSSPVTKSFNRGEC	1.71
FS17-33-288AA/HelD1.3 mock mAb^2 (bispecific antibody, human IgG1, kappa, L234A L235A, also called F17-33-288AA/HelD1.3; F17-33-288AA/HELD1.3) heavy: QVQLQESGPGLVRPSQTLSLTCTVSGSTFSGYGVNWVRQPPGRGLEWIGMIWGDGNTDYNSALKSRVTMLVDTSKNQFSLRLSSVTAADTAVYYCARERDYRLDYWGQGSLVTVSSASTKGPSVFPLAPSSKSTSGGTAALGCLVKDYFPEPVTVSWNSGALTSGVHTFPAVLQSSGLYSLSSVVTVPSSSLGTQTYICNVNHKPSNTKVDKKVEPKSCDKTHTCPPCPAPEAAGGPSVFLFPPKPKDTLMISRTPEVTCVVVDVSHEDPEVKFNWYVDGVEVHNAKTKPREEQYNSTYRVVSVLTVLHQDWLNGKEYKCKVSNKALPAPIEKTISKAKGQPREPQVYTLPPSRDESGYWVSLTCLVKGFYPSDIVVEWESNGEPQYWAKTTPPVLDSDGSFFLYSKLTVSNWRWQIDDFSCSVMHEALHNHYTQKSLSLSPGK light: DIQMTQSPASLSASVGETVTITCRASGNIHNYLAWYQQKQGKSPQLLVYNAKTLADGVPSRFSGSGSGTQYSLKINSLQPEDFGSYYCQHFWSTPRTFGGGTKLEIKRTVAAPSVFIFPPSDEQLKSGTASVVCLLNNFYPREAKVQWKVDNALQSGNSQESVTEQDSKDSTYSLSSTLTLSKADYEKHKVYACEVTHQGLSSPVTKSFNRGEC	1.02
FS17-33-296AA/HelD1.3 mock mAb^2 (bispecific antibody, human IgG1, kappa, L234A L235A, also called F17-33-296AA/HelD1.3; F17-33-296AA/HELD1.3) heavy: QVQLQESGPGLVRPSQTLSLTCTVSGSTFSGYGVNWVRQPPGRGLEWIGMIWGDGNTDYNSALKSRVTMLVDTSKNQFSLRLSSVTAADTAVYYCARERDYRLDYWGQGSLVTVSSASTKGPSVFPLAPSSKSTSGGTAALGCLVKDYFPEPVTVSWNSGALTSGVHTFPAVLQSSGLYSLSSVVTVPSSSLGTQTYICNVNHKPSNTKVDKKVEPKSCDKTHTCPPCPAPEAAGGPSVFLFPPKPKDTLMISRTPEVTCVVVDVSHEDPEVKFNWYVDGVEVHNAKTKPREEQYNSTYRVVSVLTVLHQDWLNGKEYKCKVSNKALPAPIEKTISKAKGQPREPQVYTLPPSRDESGYWVSLTCLVKGFYPSDIVVEWESNGEPQYWAKTTPPVLDSDGSFFLYSKLTVSNWRWQVDDFSCSVMHEALHNHYTQKSLSLSPGK light: DIQMTQSPASLSASVGETVTITCRASGNIHNYLAWYQQKQGKSPQLLVYNAKTLADGVPSRFSGSGSGTQYSLKINSLQPEDFGSYYCQHFWSTPRTFGGGTKLEIKRTVAAPSVFIFPPSDEQLKSGTASVVCLLNNFYPREAKVQWKVDNALQSGNSQESVTEQDSKDSTYSLSSTLTLSKADYEKHKVYACEVTHQGLSSPVTKSFNRGEC	1.77
FS17-33-334AA/HelD1.3 mock mAb^2 (bispecific antibody, human IgG1, kappa, L234A L235A) heavy: QVQLQESGPGLVRPSQTLSLTCTVSGSTFSGYGVNWVRQPPGRGLEWIGMIWGDGNTDYNSALKSRVTMLVDTSKNQFSLRLSSVTAADTAVYYCARERDYRLDYWGQGSLVTVSSASTKGPSVFPLAPSSKSTSGGTAALGCLVKDYFPEPVTVSWNSGALTSGVHTFPAVLQSSGLYSLSSVVTVPSSSLGTQTYICNVNHKPSNTKVDKKVEPKSCDKTHTCPPCPAPEAAGGPSVFLFPPKPKDTLMISRTPEVTCVVVDVSHEDPEVKFNWYVDGVEVHNAKTKPREEQYNSTYRVVSVLTVLHQDWLNGKEYKCKVSNKALPAPIEKTISKAKGQPREPQVYTLPPSRDESGYWVSLTCLVKGFYPSDIAVEWESNGEPQYWAKTTPPVLDSDGSFFLYSKLTVSNWRWQLDDFSCSVMHEALHNHYTQKSLSLSPGK light: DIQMTQSPASLSASVGETVTITCRASGNIHNYLAWYQQKQGKSPQLLVYNAKTLADGVPSRFSGSGSGTQYSLKINSLQPEDFGSYYCQHFWSTPRTFGGGTKLEIKRTVAAPSVFIFPPSDEQLKSGTASVVCLLNNFYPREAKVQWKVDNALQSGNSQESVTEQDSKDSTYSLSSTLTLSKADYEKHKVYACEVTHQGLSSPVTKSFNRGEC	0.761
Fcab FS17-33-116 with LALA mutation (designed binder) TCPPCPAPEAAGGPSVFLFPPKPKDTLMISRTPEVTCVVVDVSHEDPEVKFNWYVDGVEVHNAKTKPREEQYNSTYRVVSVLTVLHQDWLNGKEYKCKVSNKALPAPIEKTISKAKGQPREPQVYTLPPSRDESGYWVSLTCLVKGFYPSDIVVEWESNGEPQYWAKTTPPVLDSDGSFFLYSKLTVSNWRWQMDDFSCSVMHEALHNHYTQKSLSLSPGK	0.1
Fcab FS17-33-289 with LALA mutation (designed binder) TCPPCPAPEAAGGPSVFLFPPKPKDTLMISRTPEVTCVVVDVSHEDPEVKFNWYVDGVEVHNAKTKPREEQYNSTYRVVSVLTVLHQDWLNGKEYKCKVSNKALPAPIEKTISKAKGQPREPQVYTLPPSRDESGYWVSLTCLVKGFYPSDIVVEWESNGEPQYWAKTTPPVLDSDGSFFLYSKLTVSNWRWQLDDFSCSVMHEALHNHYTQKSLSLSPGK	0.108
Fcab FS17-33-289 (designed binder) TCPPCPAPELLGGPSVFLFPPKPKDTLMISRTPEVTCVVVDVSHEDPEVKFNWYVDGVEVHNAKTKPREEQYNSTYRVVSVLTVLHQDWLNGKEYKCKVSNKALPAPIEKTISKAKGQPREPQVYTLPPSRDESGYWVSLTCLVKGFYPSDIVVEWESNGEPQYWAKTTPPVLDSDGSFFLYSKLTVSNWRWQLDDFSCSVMHEALHNHYTQKSLSLSPGK	0.0886
Fcab FS17-33-334 with LALA mutation (designed binder) TCPPCPAPEAAGGPSVFLFPPKPKDTLMISRTPEVTCVVVDVSHEDPEVKFNWYVDGVEVHNAKTKPREEQYNSTYRVVSVLTVLHQDWLNGKEYKCKVSNKALPAPIEKTISKAKGQPREPQVYTLPPSRDESGYWVSLTCLVKGFYPSDIAVEWESNGEPQYWAKTTPPVLDSDGSFFLYSKLTVSNWRWQLDDFSCSVMHEALHNHYTQKSLSLSPGK	0.144
Fcab FS17-33-288 with LALA mutation (designed binder) TCPPCPAPEAAGGPSVFLFPPKPKDTLMISRTPEVTCVVVDVSHEDPEVKFNWYVDGVEVHNAKTKPREEQYNSTYRVVSVLTVLHQDWLNGKEYKCKVSNKALPAPIEKTISKAKGQPREPQVYTLPPSRDESGYWVSLTCLVKGFYPSDIVVEWESNGEPQYWAKTTPPVLDSDGSFFLYSKLTVSNWRWQIDDFSCSVMHEALHNHYTQKSLSLSPGK	0.0899
Fcab FS17-33-296 with LALA mutation (designed binder) TCPPCPAPEAAGGPSVFLFPPKPKDTLMISRTPEVTCVVVDVSHEDPEVKFNWYVDGVEVHNAKTKPREEQYNSTYRVVSVLTVLHQDWLNGKEYKCKVSNKALPAPIEKTISKAKGQPREPQVYTLPPSRDESGYWVSLTCLVKGFYPSDIVVEWESNGEPQYWAKTTPPVLDSDGSFFLYSKLTVSNWRWQVDDFSCSVMHEALHNHYTQKSLSLSPGK	0.124
Fcab FS17-33-296 (designed binder) TCPPCPAPELLGGPSVFLFPPKPKDTLMISRTPEVTCVVVDVSHEDPEVKFNWYVDGVEVHNAKTKPREEQYNSTYRVVSVLTVLHQDWLNGKEYKCKVSNKALPAPIEKTISKAKGQPREPQVYTLPPSRDESGYWVSLTCLVKGFYPSDIVVEWESNGEPQYWAKTTPPVLDSDGSFFLYSKLTVSNWRWQVDDFSCSVMHEALHNHYTQKSLSLSPGK	0.0869
